Experimental data: article doi:10.1101/2025.10.01.679806 (bioRxiv, 2025)

Molecular target: the molecule itself
Test: methyl-TROSY NMR

B1: Bpa 45-153 (domain or fragment)
chain: AKVMRIGTMIKQLLEEVRAAPLDEASRNRLRDIHATSIRELEDGLAPELREELDRLTLPFNEDAVPSDAELRIAQAQLVGWLEGLFHGIQTALFAQQMAARAQLQQMRQ
In the case of B1, the “stoichiometry N” value is reported as 4.
